Laboratory results reported in patent publication US20190202901A1 (PIERRE FABRE MEDICAMENT, published 2019).
Read-outs that look alike come from different tables or passages of the source.

Legend:
[1] = target: T1, human IGF-1R, native, on cells (MCF-7, hIGF-1R transfected cells, tumor sections, primary normal cells) (human, UniProt P08069 31-1367); test: cell-based or functional assay
[2] = target: monkey IGF-1R on COS-7 cells (monkey (African green monkey)); test: cell-based or functional assay
[3] = target: T1, human IGF-1R, native, on cells (MCF-7, …); test: cell-based or functional assay; remark: listed apart in the source
[4] = target: T2, soluble recombinant human IGF-1R hetero-tetramer with C-terminal 10-His tag (R&D Systems 305-GR-50) (human, UniProt P08069 31-736; P08069 741-932); test: SPR Biacore X100, His-captured soluble h-IGF-1R (about 600 RU), mean of 4 experiments
T2 construct: domain: alpha chain;domain: extracellular domain of the beta chain; Captured on an anti-His antibody chip; also called recombinant soluble human-IGF-1R; h-IGF-1R
Protocol: The dissociation constants (KD) of the binding of the antibodies on a recombinant soluble human-IGF-1R were defined by the ratio between the dissociation rate (koff) and the association rate (kₒₙ). The kinetic experiments were run on a Biacore X100 device using a CM5 sensor chip activated by a mouse anti-Tag His monoclobnal antibody. Around 12000 RU of antibodies are chemically grafted on the carboxymethyldextan matrix using the amine kit chemistry.
The experiments were carried out at 25° C. with a flow rate of 30 μl/min using the HBS-EP+ buffer (GE Healthcare) as the running and sample dilution buffer.
The single cycle kinetic scheme was used to define the kinetic parameters of the binding of the anti-IGF-1R antibodies on a soluble recombinant human IGF-1R captured by its two C-terminal 10 Histidine-tag. [0637] 1—A solution of a soluble recombinant version of the human IGF-1R hetero-tetramere: 2a chains and the extracellular domains of 2β chains expressed with an additional C-terminal 10-His tag (R&D Systems catalogue number 305-GR-50) was injected during one minute on the second flowcell at a concentration of 10 μg/ml. […] [0638] 2—After the capture phase, either the running buffer was injected 5 times (90 s each injection) or a growing range of 5 concentrations of one of the six antibodies was injected (90 s each injection) on both flowcells. At the end of the fifth injection the running buffer was passed during 5 minutes in order to define the dissociation rate. [0639] 3—The surface was then generated with an injection of a 10 mM Glycine, HCl pH 1.5 buffer during 45 s.

[5] = target: T3, recombinant human Insulin Receptor protein (R&D Systems, Cat 1544-IR/CF) (human, UniProt P06213-2 28-944); test: direct ELISA, coated rhIR
T3 construct: Bought protein coated on ELISA plates; also called rhIR; rh Insulin R
T3 sequence (P06213 other isoform, or with tags, fused parts or gaps limits assumed): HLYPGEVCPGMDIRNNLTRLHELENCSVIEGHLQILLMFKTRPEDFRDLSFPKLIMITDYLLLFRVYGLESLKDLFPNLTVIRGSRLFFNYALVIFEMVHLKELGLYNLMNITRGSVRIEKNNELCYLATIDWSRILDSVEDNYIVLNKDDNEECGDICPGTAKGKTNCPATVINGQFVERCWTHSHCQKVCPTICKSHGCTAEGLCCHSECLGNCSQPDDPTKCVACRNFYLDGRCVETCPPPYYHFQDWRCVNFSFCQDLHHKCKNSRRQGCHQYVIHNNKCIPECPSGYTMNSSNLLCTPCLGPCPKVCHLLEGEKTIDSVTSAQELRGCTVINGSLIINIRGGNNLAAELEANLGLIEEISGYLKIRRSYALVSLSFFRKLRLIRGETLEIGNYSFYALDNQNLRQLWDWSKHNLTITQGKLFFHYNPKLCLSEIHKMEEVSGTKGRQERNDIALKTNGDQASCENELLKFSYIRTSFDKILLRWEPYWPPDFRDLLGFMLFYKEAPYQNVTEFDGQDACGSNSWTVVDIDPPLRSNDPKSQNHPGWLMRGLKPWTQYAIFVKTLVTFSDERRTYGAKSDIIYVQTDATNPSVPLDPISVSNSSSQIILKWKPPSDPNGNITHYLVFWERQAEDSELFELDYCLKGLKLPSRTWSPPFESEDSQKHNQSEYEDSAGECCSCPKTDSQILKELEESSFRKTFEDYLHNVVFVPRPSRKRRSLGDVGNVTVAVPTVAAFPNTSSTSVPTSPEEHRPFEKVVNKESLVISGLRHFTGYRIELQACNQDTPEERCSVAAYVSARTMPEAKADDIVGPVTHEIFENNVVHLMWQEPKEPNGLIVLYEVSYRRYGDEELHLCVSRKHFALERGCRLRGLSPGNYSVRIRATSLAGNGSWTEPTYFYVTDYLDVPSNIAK
Protocol: In all direct ELISAs, proteins of interest were immobilized (1 μg/ml) to the bottom of each well. After saturation, hybridoma supernatants were added to the wells. After a 1-hour incubation period and a washing step, a solution of goat anti-mouse IgG—HRP labelled polyclonal antibody was used for detection, prior to the addition of the TMB substrate. The reaction was stopped with a 1M H₂SO₄ solution before reading the OD with a spectrophotometer at a 450 nm wavelength.

[6] = target: T1, human IGF-1R, native, on cells (MCF-7, …); test: cell-based or functional assay; remark: listed apart in the source
[7] = target: T1, human IGF-1R, native, on cells (MCF-7, …); test: cell-based or functional assay; remark: listed apart in the source

decrease of IGF1-induced phosphorylation of hIGF-1R (MCF-7 cells) [1] [%]	% internalisation (monkey IGF-1R) [2] [%]	ΔMFI (monkey IGF-1R internalization) [2] [MFI]	phosphorylation of hIGF-1R, % of phosphorylation induced by IGF-1 (MCF-7 cells, 10 µg/ml) [1] [%]	ΔMFI (MCF-7, 10 µg/ml, 4 h) [3] [MFI]	Kd [4] [nM]	binding result [5]	MFI 37°C (MCF7 internalisation assay) [6] [MFI]	% internalization (MCF-7, 10 µg/ml, 4 h) [7] [%]	ΔMFI (MCF-7, 10 µg/ml, 4 h) [7] [MFI]	Binder
–	–	–	–	–	–	no binding (tested: 5 µg/ml)	–	–	–	816C12 (antibody, V domains shown, Murine monoclonal antibody from hybridoma CNCM I-4894; also called m816C12; I-4894) VH: EVQLQQSGPELVKPGASVKMSCKASGHTFTSYVLHWMKRKPGQGLEWIGYINPHNDVTKYNENFKGKATLTSDKYSSTVYMEVSSLTSEDSAVYYCVSTAYYGNGRYFDVWGAGTTVTVSS VL: DIQMTQTTSSLSASLGDRVTISCRASQDINNYLNWYQQKPDGTVKLLIYYTSRLHSGVSSRFSGSGSGTDYSLTISNLEQEDIATYFCQQGNTLPWTFGGGTKLEIK
80	71	80	–	–	–	–	–	–	–	m219D6 (murine 219D6, hybridoma CNCM I-4736) (antibody, V domains shown) VH: QVQLQQSGPELVKPGDSVKMSCKASGYSFTSYFIHWVKQRPGQGLEWIGWIWPGDGSTKYNEKFKGKTTLTTDKSSSTAYMFLNSLTSEDSAVYFCASPMITPNYAMDYWGQGASVTVSS VL: DIQMTQTTSSLSASLGDRVTISCRASQDISKYLNWYQQQPDGTVKLLIYYTSRLHSGVPSRFSGRGSGTDYSLTISNLEQEDIATYFCQQGSTLPYTFGGGTKLEIK
–	72	98	< 10	403	~0.03	–	–	–	–	c214F8 (antibody, human IgG1, kappa, also called chimeric 214F8) heavy: not shown light: DIQMTQTTSSLSASLGDRVTFSCRASQDISKYLNWYQQQPDGTIKLLIYYTSRLHSGVPSRFSGRGSGTDYSLTITNLEQEDIATYFCQQGSALPYTFGGGTKLEIKRTVAAPSVFIFPPSDEQLKSGTASVVCLLNNFYPREAKVQWKVDNALQSGNSQESVTEQDSKDSTYSLSSTLTLSKADYEKHKVYACEVTHQGLSSPVTKSFNRGEC
–	–	–	–	–	–	no binding (tested: 5 µg/ml)	–	–	–	810D12 (antibody, V domains shown, Murine monoclonal antibody from hybridoma CNCM I-4893; also called m810D12; I-4893) VH: EVQLQQSGPELVKPGASVKMSCKASGHTFTSYMLHWVKQKPGQGLEWLGFINPYNDVTKYNENFKGKATLTSDKSSSTAYMELNSLTSEDSAVYFCVTTAYYGNGRYFDVWGAGTTVTVSS VL: DIQMTQTTSSLSASLGDRVTISCRASQDITNYLTWYQQKPDGTVKVLIYYTSRLYSGVPSRFSGSGSGSDYSLTINNLEQEDIATYFCQQGYSLPWTFGGGTKLEIK
–	73	101	< 10	369	~0.03	–	–	–	–	c213B10 (antibody, human IgG1, kappa, also called chimeric 213B10) heavy: not shown light: DIQMTQTTSSLSASLGDRVTISCRASQDISKYLNWYQQQPDGTIKLLIYYTSRLHSGVPSRFSGRGSGTDYSLTITNLEQEDIATYFCQQGSALPYTFGGGTKLEIKRTVAAPSVFIFPPSDEQLKSGTASVVCLLNNFYPREAKVQWKVDNALQSGNSQESVTEQDSKDSTYSLSSTLTLSKADYEKHKVYACEVTHQGLSSPVTKSFNRGEC

The remaining lines, values behind:

Binder	decrease of IGF1-induced phosphorylation of hIGF-1R (MCF-7 cells) [1] [%]	% internalisation (monkey IGF-1R) [2] [%]	ΔMFI (monkey IGF-1R internalization) [2] [MFI]	phosphorylation of hIGF-1R, % of phosphorylation induced by IGF-1 (MCF-7 cells, 10 µg/ml) [1] [%]	ΔMFI (MCF-7, 10 µg/ml, 4 h) [3] [MFI]	Kd [4] [nM]	binding result [5]	MFI 37°C (MCF7 internalisation assay) [6] [MFI]	% internalization (MCF-7, 10 µg/ml, 4 h) [7] [%]	ΔMFI (MCF-7, 10 µg/ml, 4 h) [7] [MFI]
m212A11 (murine 212A11, hybridoma CNCM I-4773) (antibody, V domains shown) VH: QVQLQQSGPELVKPGASVKMSCKASGYTFTSYYIHWVKQRPGQGLEWIGWIWPGDGSTKYNEKFKGKTTLTADKSSSTAYMFLSSLTSEDSAVYFCASPMITPNYAMDYWGQGASVTVSS VL: DIQMTQTTSSLSASLGDRVTISCRASQDINKYLNWYQQQPDGTVKLLIYYTSRLHSGVPSRFSGRGSGTDYSLTISNLEQEDIATYFCQQGSTLPYTFGGGTKLEIK	80	73	83	–	–	–	–	–	–	–
c212A11 (antibody, human IgG1, kappa, V domains shown, also called chimeric 212A11) VH: QVQLQQSGPELVKPGASVKMSCKASGYTFTSYYIHWVKQRPGQGLEWIGWIWPGDGSTKYNEKFKGKTTLTADKSSSTAYMFLSSLTSEDSAVYFCASPMITPNYAMDYWGQGASVTVSS VL: DIQMTQTTSSLSASLGDRVTISCRASQDINKYLNWYQQQPDGTVKLLIYYTSRLHSGVPSRFSGRGSGTDYSLTISNLEQEDIATYFCQQGSTLPYTFGGGTKLEIKR	–	75	98	< 10	322	~0.03	–	–	–	–
m208F2 (murine 208F2, hybridoma CNCM I-4757) (antibody, V domains shown) VH: QVQLQQSGPELVKPGASVKMSCKASGYTFTSYYIYWVKQRPGQGLEWLGWIWPGDGSTKYNEKFKDKTTLTADKSSNTAYMFLSSLTSEDSAVYFCASPMITPNYAMDYWGQGASVTVSS VL: DIQMTQTTSSLSASLGDRVTISCRASQDISKYLNWYQQQPDGTIKLLIYYTSRLHSGVPSRFSGRGSGTDYSLTISNVEQEDIATYFCQQGSTLPYTFGGGTKLEIK	80	74	53	–	–	–	–	94	88	294
c219D6 (antibody, human IgG1, kappa, V domains shown, also called chimeric 219D6) VH: QVQLQQSGPELVKPGDSVKMSCKASGYSFTSYFIHWVKQRPGQGLEWIGWIWPGDGSTKYNEKFKGKTTLTTDKSSSTAYMFLNSLTSEDSAVYFCASPMITPNYAMDYWGQGASVTVSS VL: DIQMTQTTSSLSASLGDRVTISCRASQDISKYLNWYQQQPDGTVKLLIYYTSRLHSGVPSRFSGRGSGTDYSLTISNLEQEDIATYFCQQGSTLPYTFGGGTKLEIKR	–	74	102	< 10	353	~0.03	–	–	–	–
m214F8 (murine 214F8, hybridoma CNCM I-4775) (antibody, V domains shown) VH: QVQLQQSGSELVKPGASVKLSCKASGYTFTSYYIHWVKQRPGQGLEWIGWIWPGDGSTKYNERFKGKTTLTADKSSSTAYMFLSSLTSEDSAVYFCASPMITPNYAMDYWGQGASVTVSS VL: DIQMTQTTSSLSASLGDRVTFSCRASQDISKYLNWYQQQPDGTIKLLIYYTSRLHSGVPSRFSGRGSGTDYSLTITNLEQEDIATYFCQQGSALPYTFGGGTKLEIK	80	71	76	–	–	–	–	111	–	–
m213B10 (murine 213B10, hybridoma CNCM I-4774) (antibody, V domains shown) VH: QVQLQQSGSELVKPGASVKMSCKASGYTFTSYYIHWVKQRPGQGLEWIGWIWPGDGSTKYNERFKGKTTLTADKSSSTAYMFLSSLTSEDSAVYFCASPMITPNYAMDYWGQGASVTVSS VL: DIQMTQTTSSLSASLGDRVTISCRASQDISKYLNWYQQQPDGTIKLLIYYTSRLHSGVPSRFSGRGSGTDYSLTITNLEQEDIATYFCQQGSALPYTFGGGTKLEIK	80	74	84	–	–	–	–	115	–	–
